The values that follow come from publication PMC3364176.

This test concerns the target bovine brain microtubules (bovine) (UniProt Q6B856). The test can be described thus: co-sedimentation.

B1: GST-CSAP (glutathione S-transferase fusion with full-length centriole and spindle-associated protein) (natural protein)
chain: MSPGSGVKSEYMKRYQEPRWEEYGPCYRELLHYRLGRRLLEQAHAPWLWDDWGPAGSSEDSASSESSGAGGPAPRCAPPSPPPPVEPATQEEAERRARGAPEEQDAEAGDAEAEDAEDAALPALPVKDVEDKPEQQTRTRETDKSPTSTEPRQQPSALFARGNRKAVKSPQRSSSKIKENKHPFALYGWGEKQTDTGSQKTHNVCASAPVHEIHESALRAKNRRQVEKRKLVAQRQRAHSVDVEKNRKMKASSSENPWMTEYMRCYSARA
B1: the Kd – broadly, the constant that tells how readily two partners part at equilibrium – was 1000 to 2000 nM.
